In US20160031978:

Target: Δ144-273 tau (full-length tau with deletion of amino acids 144-273) (UniProt P10636)
Sequence (P10636 whole entry, looked up, stated change not applied, the tested form may be a part): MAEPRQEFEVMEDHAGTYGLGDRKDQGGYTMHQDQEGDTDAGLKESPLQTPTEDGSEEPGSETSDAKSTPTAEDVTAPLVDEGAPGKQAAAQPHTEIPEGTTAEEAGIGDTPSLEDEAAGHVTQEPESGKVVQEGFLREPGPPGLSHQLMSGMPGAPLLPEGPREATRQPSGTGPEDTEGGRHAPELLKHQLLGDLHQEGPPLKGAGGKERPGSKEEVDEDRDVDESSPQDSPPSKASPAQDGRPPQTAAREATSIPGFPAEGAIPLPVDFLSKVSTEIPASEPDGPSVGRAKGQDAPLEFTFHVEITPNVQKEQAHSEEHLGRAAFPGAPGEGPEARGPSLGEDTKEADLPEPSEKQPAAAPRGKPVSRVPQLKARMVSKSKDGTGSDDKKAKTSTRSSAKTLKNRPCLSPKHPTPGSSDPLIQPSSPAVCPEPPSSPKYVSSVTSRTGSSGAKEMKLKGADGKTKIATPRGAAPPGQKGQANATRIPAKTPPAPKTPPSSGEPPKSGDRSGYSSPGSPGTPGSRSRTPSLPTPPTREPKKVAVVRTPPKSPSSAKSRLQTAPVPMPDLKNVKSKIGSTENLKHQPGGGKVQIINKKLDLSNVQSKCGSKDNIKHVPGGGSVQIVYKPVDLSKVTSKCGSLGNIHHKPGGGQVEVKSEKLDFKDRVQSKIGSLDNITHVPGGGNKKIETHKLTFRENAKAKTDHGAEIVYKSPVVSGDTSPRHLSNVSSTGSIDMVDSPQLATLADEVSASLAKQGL

active fyn kinase
in vitro phosphorylation at Tyr18 (9G3/R1 immunoblot ratio): When compared to wild-type tau, AT8 tau and A144-273 tau had a slower rate and lower maximal level of phosphorylation at Tyr18
